Measurements as given in the DeepSol protein solubility set.

experiment: soluble on expression in E. coli; label from the status in PepcDB or PDB records

Sequence	soluble on expression in E. coli
ICTTICPYGRLQGVLLDKNSINVAYDYIRGERRGHLKRGEDREIAGKGDCIDCHQCVHVCPTGIDIRNGVQMECINCTACIDEC	not soluble
IKTTKALQLNDEQQVAVDQITQAVDQAATTTFLLEGVTGSGKTEVYLQSMAAALVQGKTALMLVPEISLTPQMVQRVKGRFGKAVAVLHSGLSSGEKYDEWRRIQRGEAQVVVGARSAVFAPLKNLGLIVMDEEHESTYKQDDAPRYHARQVALWRSRYHNCPVVLGSATPSLETRARAEKG	not soluble
IMIRTDRYGVITYANEKFCEILKYDKEELIGQRFDILNSHYHAQRFFDIMWETISTGNVWNDEIRNKAKDGSYVWLDTTIIPVLNDEHVPNQYIAIYTDLS	not soluble
ISDVKFTVRGNITYSKNEIIERDEENNVYAYQMKKGYRVNQNRGLIALGLFKDYDDIRNSPTQKYGPVMPGDIKYKDVNGDGVVNDGDIVAIGSTSKPNLIYGLGLSATWKGLDVSLHFQGAGKSQFFTYGKCIWAFTEGQWGNILKGTLDNRWVDAETAQKLGIPANENPNASYPRLSYTDNGNGNTTIYEYKNNYRNSTYWLRNGSYVRLKTIDVGYTLPKKIVNKIHFNNVRIFMTGTNLLTWSSFKLWDPEMGASRGEQYPLAKSITLGLSVNL	not soluble
ITGTSTVGVGRGVLGDQKNINTTYSTYYYLQDNTRGNGIFTYDAKYRTTLPGSLWADADNQFFASYDAPAVDAHYYAGVTYDYYKNVHNRLSYDGNNAAIRSSVHYSQGYNNAFWNGSQMVYGDGDGQTFIPLSGGIDVVAHELTHAVTDYTAGLIYQNESGAINEAISDIFGTLVEFYANKNPDWEIGEDVYTPGISGDSLRSMSDPAKYGDPDHYSKRYTGTQDNGGVHINSGIINKAAYLISQGGTHYGVSVVGIGRDKLGKIFYRALTQYLTPTSNFSQLRAAAVQSATDLYGSTSQEVASVKQAFDAVGVK	soluble
IVMAETKETVIDEVVVTGTGAQKKVTVTGAVTTVDVSQLRTPTASITNALAGNVAGILARQTSGQPGSNISEFWIRGISTFGAGGSALVLVDGFERDMNEINVEDIQDFSVLKDASATAIYGSRGANGVVLITTKRGKEGK	not soluble
KDADHIHHLIDQSLIAKGFQEILTNSLTKGAYNELLSKQEDAVPILNKLSEELAFMRPSLAFTGLETVAYNINRRQKNLKLFEWGKVYFKRGTKYNEYNRLSVFITGNQHAESWNTPSKTVDFFDMKAVVVQILEKLHIAVTQVQEIESNPLFSKGVIYKHAGKELVQFGYISQAALKATDVKQEVLFADFNADLLLELYSNKSKYKEIS	not soluble
KEPSHNSFTFNESLSFTGFSKLDNNTNFNASIVSDDNRAGAMVFGQARYRNHWDANNDGYSELGKIDARSLGAHSYLRLSDYSKLTGEFHTISEFRRGGDRIDLPPHVVGVAEQTDHSVFSGNLKYDLFSSNYKHHFQAYTSGQIVNRKSYYGGIGEIDVNGHPGGTEGYPIPQDQYGNNYGVTKGKTYMGGIQYSYDLDKFLLMPSQLLFGAEYTRDELNDVMPILSWQTGEDANGNTIPLYPELDQNINNYSLFGQNEWKNDRWSILVGARLDKHSEVKDMILSPRTTLRFNVNPDINLRATYAKGFRAPQVFDEDLHVGVVGGEAQKVFNDPNLKPEISHAFSLSADMYHRFGNVQTNFLVEGFYTRLLDVFTNEEQPDQHDGIKRYTRINGSGAKVFGLNLEGKVAYKSFQLQAGLTLASNKYDEAQEWGLNTVKDTNGAFVTEANANGQQEYKNESMTDTQITRTPSVYGYFTLAYNPAHSWNIALTGAYTGQMYVPHAIEYGVKSAELDIMQNNPEITDETGKAPRIDELKKTPAFFDLGLKVGYDFHVFQATEVQLYVGMNNIFNSFQKDFDRGAARDSGYIYGPTQPRTGYMGLVVKF	not soluble
KEVRLSKHFYEDKEIEEIKHKDLAETPFQQQVIDYLYRHIAAQKEKVVEQQLQIKNHEQTITEFVHDIKTPVTAMKLLIDQENDDQRKRALLFEWSRINEMLDKQLYLTRLETHHRDMYFDYISLKRMVIDEIQVTRHISQAKGIGFELDFKDEQKVYTDVKWCRMMIRQVLSNSLKYSDNSTINLSGYNIEGHVVLKIKDYGRGISKRDLPRIFDRGFTSTTDRNDTASSGMGLYLVQSVKEQLGIEVKVDSIVGKGTTFYFIFPQQNEIIERMSKVTRLSF	not soluble
KGTLYVVGTPIGNLRDITLRALEILSAVDCIAAEHIQHAQKLLAGHALHTTSTRIMPLHQHNEGSAVEKIIELLGSGKSVALISDAGTPAISDPGALLVQQVLARSLPVVPIPGA	not soluble
KIGKHTIKFPIFQGGMGVGISWDELAGNVAKEGALGVISAVGTGYYKNMRFVERIVAKKPFEALNFYSKKALNEIFANARKICGNNPLGANILYAINDYGRVLRDSCEAGANIIITGAGLPTNMPEFAKDFSDVALIPIISSAKALKILCKRWSDRYKRIPDAFIVEGPLSGGHQGFKYEDCFKEEFRLENLVPKVVEASKEWGNIPIIAAGGIWDRKDIDTMLSLGASGVQMATRFLGTKECDAKVYADLLPTLKKEDILLIKSPVGYPARAINTGVIKRIEEGNAPKIACVSNCVAPCNRGEEAKKVGYCIADGLGRSYLGNREEGLYFTGANGYRVDKIISVHELIK	not soluble
KKITRPIEKLSDTVSQMAKGQYDTRAKIKTDGEVGDLVNSFNIMADRLEKNIEELEDTARRQEDFTAAFAHELKTPLTSIIGYSDMMRSMDLEKEEISEYSNYIFLQGKRLEKLSFTLMDLISLDKQKIEFNRISTEKMFNDIEKTVEQMLREHNIRFKMSVEPAVIVGNEDLLKSLFMNIIDNGRKAISGQGIIALKAIKTEKGYTVFIQDNGCGMEKSEIKKITEAFYMIDKSRARKEGGAGIGMSLCKKIVSIHNAKWSVRSKPGKGTIISIVFQEGQN	not soluble
KKSPSAGSGSNGGNKKISQEEGEDNGGEDNKKLRGALSSAILSEKPNVKWEDVAGLEGAKEALKEAVILPVKFPHLFKGNRKPTSGILLYGPPGTGKSYLAKAVATEANSTFFSVSSSDLVSKWMGESEKLVKQLFAMARENKPSIIFIDQVDALTGTRGEGESEASRRIKTELLVQMNGVGNDSQGVLVLGATNIPWQLDSAIRRRFERRIYIPLPDLAARTTMFEINVGDTPSVLTKEDYRTLGAMTEGYSGSDIAVVVKDALMQPIRKIQSATHFKDVSTEDDETRKLTPSSPGDDGAIEMSWTDIEADELKEPDLTIKDFLKAIKSTRPTVNEDDLLKQEQFTRDFGQEGN	soluble
KLDKAYLNNDADKITYMPTWRPWEESEIINGNIKKTTYYKSILDVIKAFEKENMLNRLQIAAHNKFSQYMKNNFDKYQNIFIEDPTDTLTNSIIYITDISSIILDAAYRGAYPIFYWKEFDYIIEKHGGTSPVNPENAPGDVVYSEQDLVNIVKYIIRNDYKIPSRIKENYKKLNEFNDNQNTQRVVDILIEDNII	not soluble
KLEFREVDKDALVNDEKLLREFFGIYVLAHYRNRPSDLAILLDMPNHLPFIVTVNGKPVCSLHIAVEGNLDDETIEKIKEGYKPKGQIIPDLMLKHYWDFEFPKLVGARVVRIATHPSVMDMGIGSFALAKIVEWAYGRDMDWVGSGFGVSPELLRFWAKNHFTPVHITPQRNE	not soluble
KMPLTIYSADGEVIGMYGEQRREFTKIGDFPEVLRNAVIAAEDKRFYRHWGVDVWGVARAAVGNVVSGSVQSGASTITQQVAKNFYLSSEKTFTRKFNEVLLAYKIEQSLSKDKILELYFNQIYLGQRAYGFASAAQIYFNKNVRDLTLAEAAMLAGLPKAPSAY	not soluble
KMPVTAGLTVEKKINKHLAVETGLLYSNLRAEQNLHYLGIPVKLNVTLAETPKFDLYASVGGVADKCIAGAPDNSFKNEPVQLALTAGVGMNYKINDKLALFAEPG	not soluble
KNKTIEVYVDRATLPTIQQMTQIINENSNNKKLISWSRYPINDETLLESINGSFFKNRPELIKSLDSMILTNEIKKVIINGNTLWAVDVVNIIKSIEALGKKTEIELNFYDDGSAEYVRLYDFSRLPESEQEYKISLSKDNIQSSINGTQPFDNSIENIYGFSQLYPTTYHMLRADIFETNLPLTSLKRVISNNIKQMKWDYFTTFNSQQKNKFYNFTGFNPEKIKEQYKASPHENFIFIGTNSGTATAEQQIDILTEAKKPDSPIITNSIQGLDLFFKGHPSATYNQQIIDAHNMIEIYNKIPFEALIMTDALPDAVGGMGSSVFFSLPNTVENKFIFYKSDTDIENNALIQVMIELNIVNRNDVKLISDLQ	soluble
